# Columns and labels:
# [1] = molecular target: SUMO-ARVCF peptide fusion protein (yeast); experiment: SPR; linker mutant immobilised on Ni-NTA chip, SUMO-peptide fusion as analyte
# [2] = molecular target: SUMO-ARVCF peptide fusion protein, Ala substitution at position -4 (yeast); experiment: SPR, Ala scanning; reference wild-type ARVCF peptide
# [3] = molecular target: SUMO-ARVCF peptide fusion protein, Ala substitution at position -5 (yeast); experiment: as above
# [4] = molecular target: SUMO-ARVCF peptide fusion protein, Ala substitution at position -7 (yeast); experiment: as above
# [5] = molecular target: SUMO-ARVCF peptide fusion protein, Ala substitution at position -6 (yeast); experiment: as above
# [6] = molecular target: SUMO-ARVCF peptide fusion protein (yeast); experiment: SPR (BIAcore 2000); clamp immobilised on Ni-NTA chip, SUMO-peptide fusion as analyte
# [7] = molecular target: SUMO-δ-catenin peptide fusion protein (yeast); experiment: ratio of SPR Kd values, reference ARVCF peptide
# [8] = molecular target: SUMO-δ-catenin peptide fusion protein (yeast); experiment: binding analysis of purified protein; reference ARVCF peptide
# [9] = molecular target: SUMO-ARVCF peptide fusion protein (yeast); experiment: SPR; clamp immobilised on Ni-NTA chip, SUMO-peptide fusion as analyte
# [10] = molecular target: SUMO-ARVCF peptide fusion protein (yeast); experiment: SPR; linker mutant against ePDZ-b with the GGSGG linker
# Chain of ePDZ-b linker mutant GGSG (Q96RT1 other isoform, or with tags, fused parts or gaps, change not shown): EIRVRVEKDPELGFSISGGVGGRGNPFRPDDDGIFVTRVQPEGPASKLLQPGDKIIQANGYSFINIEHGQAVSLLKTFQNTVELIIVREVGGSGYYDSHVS
# Chain of ePDZ-a linker mutant GG (Q96RT1 other isoform, or with tags, fused parts or gaps, change not shown): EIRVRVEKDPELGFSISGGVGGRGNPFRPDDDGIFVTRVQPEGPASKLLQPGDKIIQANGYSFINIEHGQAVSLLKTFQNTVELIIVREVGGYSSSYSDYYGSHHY
# Chain of ePDZ-b linker mutant GGS (Q96RT1 other isoform, or with tags, fused parts or gaps, change not shown): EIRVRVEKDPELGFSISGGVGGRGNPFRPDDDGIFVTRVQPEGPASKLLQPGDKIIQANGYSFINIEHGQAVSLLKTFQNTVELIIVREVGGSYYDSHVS
# Chain of ePDZ-a linker mutant GGSG (Q96RT1 other isoform, or with tags, fused parts or gaps, change not shown): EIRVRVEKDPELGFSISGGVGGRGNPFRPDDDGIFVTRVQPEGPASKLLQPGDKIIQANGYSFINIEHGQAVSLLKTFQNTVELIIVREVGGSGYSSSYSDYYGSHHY
# Chain of ePDZ-a linker mutant GGS (Q96RT1 other isoform, or with tags, fused parts or gaps, change not shown): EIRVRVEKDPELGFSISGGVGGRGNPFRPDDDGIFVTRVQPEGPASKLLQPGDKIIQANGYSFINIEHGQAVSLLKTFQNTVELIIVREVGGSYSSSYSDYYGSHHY
substance,measurement,setting,value
ePDZ-a linker mutant GG (from UniProt Q96RT1 1321-1410) (designed binder),Kd,[1],311 nM
ePDZ-a linker mutant GGS (from UniProt Q96RT1 1321-1410) (designed binder),Kd,[1],134 nM
ePDZ-a linker mutant GGSG (from UniProt Q96RT1 1321-1410) (designed binder),Kd,[1],117 nM
ePDZ-b (from UniProt Q96RT1 1321-1410) (designed binder),fold decrease in binding affinity against the wild-type ARVCF peptide,[2],> 5 fold
same,ΔΔG upon Ala substitution of the ARVCF peptide,[2],> 3 kcal/mol
same,fold decrease in binding affinity against the wild-type ARVCF peptide,[3],> 5 fold
same,ΔΔG upon Ala substitution of the ARVCF peptide,[3],> 1 kcal/mol
same,fold decrease in binding affinity against the wild-type ARVCF peptide,[4],> 5 fold
same,ΔΔG upon Ala substitution of the ARVCF peptide,[4],> 1 kcal/mol
same,fold decrease in binding affinity against the wild-type ARVCF peptide,[5],> 5 fold
same,ΔΔG upon Ala substitution of the ARVCF peptide,[5],> 1 kcal/mol
same,Kd,[6],56 nM
same,koff,[6],0.011 s⁻¹
same,kon,[6],190000 M⁻¹ s⁻¹
same,Specificity Index (Kd for δ-catenin / Kd for ARVCF),[7],> 446
same,fold discrimination between the two targets,[8],200 fold
same,Kd,[9],56 nM
ePDZ-b linker mutant GGS (from UniProt Q96RT1 1321-1410) (designed binder),Kd,[1],> 5000 nM
ePDZ-b linker mutant GGSG (from UniProt Q96RT1 1321-1410) (designed binder),Kd,[1],412 nM
same,fold reduction of binding affinity against the original linker,[10],8 fold

# — US20110045604A1
